{"source": "patent US20150093386A1", "assay_in_all_cases": "cell-based or functional assay", "key": {"[1]": {"biological_target": "EGFR overexpressed on U87 MG EGFR cells (UniProt P00533)"}, "[2]": {"biological_target": "EGFRvIII (EGFR with deletion of exons 2-7) on U87 MG-EGFRvIII cells (human) (UniProt P00533)"}, "[3]": {"biological_target": "endogenous EGFR at low level on U87 MG cells (human) (UniProt P00533)"}}, "data": [{"substance": "humanized monoclonal antibody ch806", "values": [{"measurement": "EC50 values of cytotoxicity on MG-EGFR cells", "setting": "[1]", "value": 6.48, "unit": "µM"}, {"measurement": "cytotoxicity % at 0.0002 nM, U87 MG EGFR cells with PBMC", "setting": "[1]", "value": 1.89, "unit": "%"}, {"measurement": "cytotoxicity % at 0.002 nM, U87 MG EGFR cells with PBMC", "setting": "[1]", "value": 0.61, "unit": "%"}, {"measurement": "cytotoxicity % at 0.02 nM, U87 MG EGFR cells with PBMC", "setting": "[1]", "value": 1.31, "unit": "%"}, {"measurement": "cytotoxicity % at 0.2 nM, U87 MG EGFR cells with PBMC", "setting": "[1]", "value": 0.37, "unit": "%"}, {"measurement": "cytotoxicity % at 2 nM, U87 MG EGFR cells with PBMC", "setting": "[1]", "value": 0.49, "unit": "%"}, {"measurement": "cytotoxicity % at 20 nM, U87 MG EGFR cells with PBMC", "setting": "[1]", "value": 4.92, "unit": "%"}, {"measurement": "EC50 values of cytotoxicity on U87 MG-EGFRvIII cells", "setting": "[2]", "value": 0.0408, "unit": "µM"}, {"measurement": "cytotoxicity % at 0.0002 nM, U87 MG EGFRvIII cells with PBMC", "setting": "[2]", "value": 0.41, "unit": "%"}, {"measurement": "cytotoxicity % at 0.002 nM, U87 MG EGFRvIII cells with PBMC", "setting": "[2]", "value": 0.62, "unit": "%"}, {"measurement": "cytotoxicity % at 0.02 nM, U87 MG EGFRvIII cells with PBMC", "setting": "[2]", "value": 0.76, "unit": "%"}, {"measurement": "cytotoxicity % at 0.2 nM, U87 MG EGFRvIII cells with PBMC", "setting": "[2]", "value": 15.6, "unit": "%"}, {"measurement": "cytotoxicity % at 2 nM, U87 MG EGFRvIII cells with PBMC", "setting": "[2]", "value": 22.3, "unit": "%"}, {"measurement": "cytotoxicity % at 20 nM, U87 MG EGFRvIII cells with PBMC", "setting": "[2]", "value": 36.3, "unit": "%"}, {"measurement": "cytotoxicity % at 0.0002 nM, U87 MG cells with PBMC", "setting": "[3]", "value": 0.96, "unit": "%"}, {"measurement": "cytotoxicity % at 0.002 nM, U87 MG cells with PBMC", "setting": "[3]", "value": 0.71, "unit": "%"}, {"measurement": "cytotoxicity % at 0.02 nM, U87 MG cells with PBMC", "setting": "[3]", "value": 0.71, "unit": "%"}, {"measurement": "cytotoxicity % at 0.2 nM, U87 MG cells with PBMC", "setting": "[3]", "value": 0.07, "unit": "%"}, {"measurement": "cytotoxicity % at 2 nM, U87 MG cells with PBMC", "setting": "[3]", "value": 0.28, "unit": "%"}, {"measurement": "cytotoxicity % at 20 nM, U87 MG cells with PBMC", "setting": "[3]", "value": 4.18, "unit": "%"}]}]}
